Measurements taken from patent publication US20100028862A1 (REPLIDYNE, published 2010).

Tests used:
[1] = test system: DnaA (Escherichia coli); conditions: minimum DnaA concentration giving plateau in origin reconstitution assay; ATP, Mg; gel shift and filter binding mentioned without values
[2] = test system: PolC (Streptococcus pyogenes); conditions: reconstitution assay; template inferred
[3] = test system: DnaG primase (Pseudomonas aeruginosa); conditions: reconstituted P. aeruginosa holoenzyme assay, 22 C
[4] = molecular target: DNA polymerase III alpha-epsilon (DnaE/DnaQ) (Pseudomonas aeruginosa) (UniProt Q9HXZ1+G3XD54); conditions: E. coli DnaG-primed holoenzyme assay, 30 C
[5] = test system: DnaG primase (Yersinia pestis)
[6] = test system: DNA polymerase III core (alpha-epsilon-theta) (Yersinia pestis)
[7] = molecular target: T1, N-terminally hexa-His-tagged P. aeruginosa χ (Pseudomonas aeruginosa, UniProt O68823 2-142); experiment: Ni-NTA magnetic bead pull-down with immobilized His-tagged χ, imidazole elution
T1 construct: also called immobilized tagged P. aeruginosa χ; N-terminally His-tagged HolC; not shown: N-terminal hexa-His tag encoded by vector pA1-NB-KpnI
T1 sequence: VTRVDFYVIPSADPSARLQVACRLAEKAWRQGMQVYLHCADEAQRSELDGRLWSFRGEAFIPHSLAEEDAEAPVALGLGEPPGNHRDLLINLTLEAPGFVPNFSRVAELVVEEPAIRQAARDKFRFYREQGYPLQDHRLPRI

[8] = molecular target: T2, P. aeruginosa χ subunit (untagged) (Pseudomonas aeruginosa, UniProt O68823 2-142); experiment: co-expression and co-purification (ammonium sulfate, Q Sepharose)
T2 construct: holC, PA3832, 142 amino acids; also called HolC; chi
T2 sequence: T1 sequence

For “M13 ssDNA with 306-nt insert containing DnaA-box hairpin”, the activity [1] was 76 nM.

In the case of M13Gori ssDNA, the activity [2] is reported as 500000 U/mg, the activity [3] is reported as 594000 U/mg and the activity [4] is reported as 4.1e+06 U/mg. For the same molecule, the activity [5] was 5.8e+06 U/mg and the activity [6] was 1.1e+07 U/mg.

B1: PA4679N45 protein, P. aeruginosa DNA polymerase III holoenzyme ψ subunit (other)
chain: LIEEQRRRAFLGAMQITSWLPRQPLPFAAPSRPELLETPPREEPAVPVRARAAIDAPQARVPQAEAPASAPSVAPAAPVEGRGIPISLPKPGAPAAKKAEPVAPVEEAPAESPAVQAPPPRFALQLLQAGSCTLLVELPTGEPFASRDPGYLLLRDLLRAAGLPDSPRLIGEPVRWPLLARGNLDQGPQAALEFVQSFVAARMEESERSRCLWLVGLPAIRFAGEGDEGSLFRELQVDGLGATWAVPGLEALMEEPALKGELWRAMRRVRQRWSSEIQ
notes: also called HolD; psi
B1: binds [7]; binds [8].
